B1: Bombyx mori aminopeptidase N (receptor)
chain: LSPIPVPEDEWVEFARMLRDPAFRLPTTTRPRHYQVTLTPYFDVVPANVNPFTFDGEVTIYTSPTVANVNEVVIHCNDLTIQSLSIGYQSGTNVVDITATGQTFACEMPFSFLRIRTTEALVLNREYIIKSTFRGNLQTNMRGFYRSWYVDSTGRRWMGTTQFQPGHARQAFPCYDEPGFKATFDITMNREESFSPTISNMPIRTTNTLANGRVSETFWTTPVTSTYLLAFIVSHYTVVSTNNNALRPFDIYARNNVGRTGDWSLEIGEKLLEAMEAYTQIPYYTMAENINMKQAAIPDFSAGAMENWGLLTYREALILYDPLNSNHFYKQRVANIVAHEIAHMWFGNLVTCAWWDNLWLNEGFARFYQYYLTASVAPELGYETRFIVEQVQMAMFSDSVDTAHALTDLNVNDPTTVSAHFSTITYARGAAILRMTQHLLGVETFVKGLRNYLRERQFNVAEPHHLFTALDAAAVEDGALNGYGGITIDTYFRTWSEKAGHPLLTVTINQRTGEMIVTQERWERNTGVSQFPSLWHIPITWTRAGAPEFEDLKPSQFISQQVTSINRGTTGLEWVIFNKQEAGFYRVNYDDTNWALLTRALRSSSRTAIHQLNRAQIVDDIFQLARANVMKYNRAFNILSFLQFEDEYAPWLAAISGFNFLIRRLAHDSTNAALLQKLILELSPAVVAKLGYLEPENGSYMTDLQRMYVMEFLCNVGHEECNNFGTQAFRRWSTGTFIPANMRPWVYCAGLRHGTAEDFNFFWNRYLQEDLSSEKVVMLNVAGCTTDQASLNRFLDAIVSGNDDIRPQDYNAALTSAITSNEINTLRAFQWLRNNVDQATRTLGSVSTILNTIIGRLLNEEQINEVSNWLTANQNTLGATYSTALRAIETTRSNLVWSQQRISEFTNYFESGYVEDVIEEITEAPPTAPPTAPPTEAPAVTPAPDSANVAALSFITLIITLAVNLA

How the values were obtained:
[1] = target: Bombyx mori cadherin-like protein BtR175 (Bombyx mori (endogenous in larval midgut)); assay: SPR; receptors (100-200 ng) amine-coupled to a CM5 chip; toxin 100-1000 nM injected in HBS pH 7.4 (10 mM Hepes, 150 mM NaCl, 3.4 mM EDTA) at 50 ul/min; blank flowcell subtracted; 1:1 Langmuir fit; apparent rate constants
[2] = target: Bombyx mori cadherin-like protein BtR175 (Bombyx mori (endogenous in larval midgut))
[3] = target: T1, Bacillus thuringiensis Cry1Aa insecticidal protein, wild type, trypsin-activated toxin (Bacillus thuringiensis, UniProt P0A366 1-1176); assay: SPR; receptors (100-200 ng) amine-coupled to a CM5 chip; toxin 100-1000 nM injected in HBS pH 7.4 (10 mM Hepes, 150 mM NaCl, 3.4 mM EDTA) at 50 ul/min; blank flowcell subtracted; 1:1 Langmuir fit; apparent rate constants; conditions: both partners purified
T1 construct: trypsin-resistant 65 kDa toxin cut from the solubilized protoxin; also called Cry1Aa (Wt); Cry1Aa wt; source: E. coli MV1190 containing pBN-1Aa; crystal inclusion bodies solubilized, trypsin-digested, purified (Superdex 200, monomeric fraction)

| Molecule | Kd [1] [nM] | koff [1] [s⁻¹] | kon [1] [M⁻¹ s⁻¹] | LC50 against B. mori larvae (surface contamination bioassay, mortality after 5 days) [2] [ng/ccm] | Kd [3] [nM] | koff [3] [s⁻¹] | kon [3] [M⁻¹ s⁻¹] |
| --- | --- | --- | --- | --- | --- | --- | --- |
| Bacillus thuringiensis Cry1Aa insecticidal protein, wild type, trypsin-activated toxin (from UniProt P0A366 1-1176) (natural protein) | 2.6 | 3.3e-05 | 13000 | – | – | – | – |
| Cry1Aa mutant toxin F328A, trypsin-activated (from UniProt P0A366 1-1176) (natural protein) | 60.7 | 9.1e-05 | 1500 | 41.5 | – | – | – |
| B1 | – | – | – | – | 75 | 0.0015 | 21000 |
